Source: US7470669B2, “Isolated polypeptide comprising a leptin fragment” (Serono Genetics Institute, S.A., priority 1999, dated 2008)

System: LSR
Test: LSR activity (oleate-induced 125I-LDL binding, uptake, degradation) in PLC cells
Assay type: cell-based, human
Conditions: 10 ng/mL recombinant leptin
Procedure: FIGS. 5A, 5B, 5C, and 5D show the stimulatory effect of leptin on LSR activity in PLC and suppression of this effect by 81B antibody. For FIGS. 5A, 5B, and 5C, cultured PLC cells were incubated at 37° C. for 30 min with increasing concentrations of human recombinant leptin in Buffer A. After this, 0.5 mM oleate and 20 μg/mL ^125I-LDL were added, and cells were further incubated at 37° C. for 2 h. Cells were washed, and the amount of oleate-induced ^125I-LDL bound (5A), internalized (5B) and degraded (5C) were measured. […] After washing, the amount of ^125I-LDL binding was determined, and is shown here as the mean±SD of triplicate determinations.
FIGS. 8A and 8B show the effect of mouse or human leptin on LSR activity in primary cultures of rat hepatocytes or a human liver cell line (PLC). […] The cells were washed, and the amount of oleate-induced ^125I-LDL bound and degraded was measured as described previously (Bihain, B. E., and Yen, F. T. (1992). Free fatty acids activate a high-affinity saturable pathway for degradation of low density lipoproteins infibroblasts from a subject homozygous for familial hypercholesterolemia. Biochemistry 31, 4628-4636.
FIGS. 35A and 35B show graphs of LSR activity and mRNA expression measured in PLC cells preincubated 24 h with leptin. […] Cells were washed, and the amount of oleate-induced ^125I-LDL binding was measured as described previously. […]

B1: mouse leptin: recombinant mouse leptin, laboratory-prepared or commercial (Sigma, Calbiochem) (protein, UniProt P41160 22-167, looked up)
Leptin: VPIQKVQDDTKTLIKTIVTRINDISHTQSVSAKQRVTGLDFIPGLHPILSLSKMDQTLAVYQQVLTSLPSQNVLQIANDLENLRDLLHLLAFSKSCSLPQTSGLQKPESLDGVLEASLYSTEVVALSRLQGSLQDILQQLDVSPEC
- stimulation of LSR activity in human PLC cells: inactive
